Reference: patent publication US20110091994A1, “Methods for Screening Compounds for Treating and/or Preventing an Hepatitis C Virus Infection” (priority 2008, published 2011)
Read-outs that look alike come from different tables or passages of the source.

What was measured:
[1] = system: HCV ORFs (Gal4-DB fusions); assay type: binding, HCV genotype 1b, isolate con1; conditions: human protein listed by gene symbol; the value names the HCV protein it interacts with
[2] = molecular target: T1, HCV ORFs (Gal4-DB fusions) (Hepatitis C virus genotype 1b, UniProt Q9WMX2); assay type: binding, HCV genotype 1b, isolate con1; conditions: human protein as prey
T1 construct: expressed in transfected cells; host or cells: Saccharomyces cerevisiae MAV203 (IMAP1) / AH109 (IMAP2)
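Note: yeast two-hybrid screens using HCV genotype 1b proteins fused to Gal4-DB as baits against prey cDNA libraries from human spleen and foetal brain, IMAP1 via transformation and IMAP2 via mating.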

| Molecule | Interaction with viral protein [1] | IMAP Y2H IMAP2 (number of IST) ([2]; HCV protein NS5A as bait) | IMAP Y2H IMAP2 (number of IST) ([2]; HCV protein NS5B as bait) |
| --- | --- | --- | --- |
| RRBP1 (protein, UniProt Q9P2E9 1-1410, looked up) Ribosome-binding protein 1: MDIYDTQTLGVVVFGGFMVVSAIGIFLVSTFSMKETSYEEALANQRKEMAKTHHQKVEKKKKEKTVEKKGKTKKKEEKPNGKIPDHDPAPNVTVLLREPVRAPAVAVAPTPVQPPIIVAPVATVPAMPQEKLASSPKDKKKKEKKVAKVEPAVSSVVNSIQVLTSKAAILETAPKEVPMVVVPPVGAKGNTPATGTTQGKKAEGTQNQSKKAEGAPNQGRKAEGTPNQGKKTEGTPNQGKKAEGTPNQGKKAEGTPNQGKKAEGAQNQGKKVDTTPNQGKKVEGAPTQGRKAEGAQNQAKKVEGAQNQGKKAEGAQNQGKKGEGAQNQGKKAEGAQNQGKKAEGAQNQGKKAEGAQNQGKKAEGAQNQGKKAEGAQNQGKKAEGAQNQGKKVEGAQNQGKKAEGAQNQGKKAEGAQNQGKKAEGAQNQGKKAEGAQNQGKKAEGAQNQGKKAEGAQNQGKKAEGAQNQGKKVEGAQNQGKKAEGAQNQGKKAEGAQNQGKKAEGAQNQGQKGEGAQNQGKKTEGAQGKKAERSPNQGKKGEGAPIQGKKADSVANQGTKVEGITNQGKKAEGSPSEGKKAEGSPNQGKKADAAANQGKKTESASVQGRNTDVAQSPEAPKQEAPAKKKSGSKKKGEPGPPDADGPLYLPYKTLVSTVGSMVFNEGEAQRLIEILSEKAGIIQDTWHKATQKGDPVAILKRQLEEKEKLLATEQEDAAVAKSKLRELNKEMAAEKAKAAAGEAKVKKQLVAREQEITAVQARMQASYREHVKEVQQLQGKIRTLQEQLENGPNTQLARLQQENSILRDALNQATSQVESKQNAELAKLRQELSKVSKELVEKSEAVRQDEQQRKALEAKAAAFEKQVLQLQASHRESEEALQKRLDEVSRELCHTQSSHASLRADAEKAQEQQQQMAELHSKLQSSEAEVRSKCEELSGLHGQLQEARAENSQLTERIRSIEALLEAGQARDAQDVQASQAEADQQQTRLKELESQVSGLEKEAIELREAVEQQKVKNNDLREKNWKAMEALATAEQACKEKLLSLTQAKEESEKQLCLIEAQTMEALLALLPELSVLAQQNYTEWLQDLKEKGPTLLKHPPAPAEPSSDLASKLREAEETQSTLQAECDQYRSILAETEGMLRDLQKSVEEEEQVWRAKVGAAEEELQKSRVTVKHLEEIVEKLKGELESSDQVREHTSHLEAELEKHMAAASAECQNYAKEVAGLRQLLLESQSQLDAAKSEAQKQSDELALVRQQLSEMKSHVEDGDIAGAPASSPEAPPAEQDPVQLKTQLEWTEAILEDEQTQRQKLTAEFEEAQTSACRLQEELEKLRTAGPLESSETEEASQLKERLEKEKKLTSDLGRAATRLQELLKTTQEQLAREKDTVKKLQEQLEKAEDGSSSKEGTSV | NS5A | 2 | – |
| OS9 (protein, UniProt Q13438 26-667, looked up) Protein OS-9: GGVGSLNLEELSEMRYGIEILPLPVMGGQSQSSDVVIVSSKYKQRYECRLPAGAIHFQREREEETPAYQGPGIPELLSPMRDAPCLLKTKDWWTYEFCYGRHIQQYHMEDSEIKGEVLYLGYYQSAFDWDDETAKASKQHRLKRYHSQTYGNGSKCDLNGRPREAEVRFLCDEGAGISGDYIDRVDEPLSCSYVLTIRTPRLCPHPLLRPPPSAAPQAILCHPSLQPEEYMAYVQRQADSKQYGDKIIEELQDLGPQVWSETKSGVAPQKMAGASPTKDDSKDSDFWKMLNEPEDQAPGGEEVPAEEQDPSPEAADSASGAPNDFQNNVQVKVIRSPADLIRFIEELKGGTKKGKPNIGQEQPVDDAAEVPQREPEKERGDPERQREMEEEEDEDEDEDEDEDERQLLGEFEKELEGILLPSDRDRLRSEVKAGMERELENIIQETEKELDPDGLKKESERDRAMLALTSTLNKLIKRLEEKQSPELVKKHKKKRVVPKKPPPSPQPTEEDPEHRVRVRVTKLRLGGPNQDLTVLEMKRENPQLKQIEGLVKELLEREGLTAAGKIEIKIVRPWAEGTEEGARWLTDEDTRNLKEIFFNILVPGAEEAQKERQRQKELESNYRRVWGSPGGEGTGDLDEFDF | NS5A | – | 3 |
| CCDC100 (protein, UniProt Q8N960 1-986, looked up) Centrosomal protein of 120 kDa: MVSKSDQLLIVVSILEGRHFPKRPKHMLVVEAKFDGEQLATDPVDHTDQPEFATELAWEIDRKALHQHRLQRTPIKLQCFALDPVTSAKETIGYIVLDLRTAQETKQAPKWYQLLSNKYTKFKSEIQISIALETDTKPPVDSFKAKGAPPRDGKVPAILAGLDPRDIVAVLNEEGGYHQIGPAEYCTDSFIMSVTIAFATQLEQLIPCTMKLPERQPEFFFYYSLLGNDVTNEPFNDLINPNFEPERASVRIRSSVEILRVYLALQSKLQIHLCCGDQSLGSTEIPLTGLLKKGSTEINQHPVTVEGAFTLDPPNRAKQKLAPIPVELAPTVGVSVALQREGIDSQSLIELKTQNEHEPEHSKKKVLTPIKEKTLTGPKSPTVSPVPSHNQSPPTKDDATESEVESLQYDKDTKPNPKASSSVPASLAQLVTTSNASEVASGQKIAVPATSHHFCFSIDLRSIHALEIGFPINCILRYSYPFFGSAAPIMTNPPVEVRKNMEVFLPQSYCAFDFATMPHQLQDTFLRIPLLVELWHKDKMSKDLLLGIARIQLSNILSSEKTRFLGSNGEQCWRQTYSESVPVIAAQGSNNRIADLSYTVTLEDYGLVKMREIFISDSSQGVSAVQQKPSSLPPAPCPSEIQTEPRETLEYKAALELEMWKEMQEDIFENQLKQKELAHMQALAEEWKKRDRERESLVKKKVAEYTILEGKLQKTLIDLEKREQQLASVESELQREKKELQSERQRNLQELQDSIRRAKEDCIHQVELERLKIKQLEEDKHRLQQQLNDAENKYKILEKEFQQFKDQQNNKPEIRLQSEINLLTLEKVELERKLESATKSKLHYKQQWGRALKELARLKQREQESQMARLKKQQEELEQMRLRYLAAEEKDTVKTERQELLDIRNELNRLRQQEQKQYQDSTEIASGKKDGPHGSVLEEGLDDYLTRLIEERDTLMRTGVYNHEDRIISELDRQIREILAKSNASN | NS5A | 1 | – |
| PMVK (protein, UniProt Q15126 1-192, looked up) Phosphomevalonate kinase: MAPLGGAPRLVLLFSGKRKSGKDFVTEALQSRLGADVCAVLRLSGPLKEQYAQEHGLNFQRLLDTSTYKEAFRKDMIRWGEEKRQADPGFFCRKIVEGISQPIWLVSDTRRVSDIQWFREAYGAVTQTVRVVALEQSRQQRGWVFTPGVDDAESECGLDNFGDFDWVIENHGVEQRLEEQLENLIEFIRSRL | NS5A | 1 | – |
| NFE2 (protein, UniProt Q16621 1-373, looked up) Transcription factor NF-E2 45 …: MSPCPPQQSRNRVIQLSTSELGEMELTWQEIMSITELQGLNAPSEPSFEPQAPAPYLGPPPPTTYCPCSIHPDSGFPLPPPPYELPASTSHVPDPPYSYGNMAIPVSKPLSLSGLLSEPLQDPLALLDIGLPAGPPKPQEDPESDSGLSLNYSDAESLELEGTEAGRRRSEYVEMYPVEYPYSLMPNSLAHSNYTLPAAETPLALEPSSGPVRAKPTARGEAGSRDERRALAMKIPFPTDKIVNLPVDDFNELLARYPLTESQLALVRDIRRRGKNKVAAQNCRKRKLETIVQLERELERLTNERERLLRARGEADRTLEVMRQQLTELYRDIFQHLRDESGNSYSPEEYALQQAADGTIFLVPRGTKMEATD | NS5A | 1 | – |
| SORBS3 (protein, UniProt O60504 1-671, looked up) Vinexin: MQGPPRSLRAGLSLDDFIPGHLQSHIGSSSRGTRVPVIRNGGSNTLNFQFHDPAPRTVCNGGYTPRRDASQHPDPAWYQTWPGPGSKPSASTKIPASQHTQNWSATWTKDSKRRDKRWVKYEGIGPVDESGMPIAPRSSVDRPRDWYRRMFQQIHRKMPDLQLDWTFEEPPRDPRHLGAQQRPAHRPGPATSSSGRSWDHSEELPRSTFNYRPGAFSTVLQPSNQVLRRREKVDNVWTEESWNQFLQELETGQRPKKPLVDDPGEKPSQPIEVLLERELAELSAELDKDLRAIETRLPSPKSSPAPRRAPEQRPPAGPASAWSSSYPHAPYLGSARSLSPHKMADGGSPFLGRRDFVYPSSTRDPSASNGGGSPARREEKKRKAARLKFDFQAQSPKELTLQKGDIVYIHKEVDKNWLEGEHHGRLGIFPANYVEVLPADEIPKPIKPPTYQVLEYGEAVAQYTFKGDLEVELSFRKGEHICLIRKVNENWYEGRITGTGRQGIFPASYVQVSREPRLRLCDDGPQLPTSPRLTAAARSARHPSSPSALRSPADPIDLGGQTSPRRTGFSFPTQEPRPQTQNLGTPGPALSHSRGPSHPLDLGTSSPNTSQIHWTPYRAMYQYRPQNEDELELREGDRVDVMQQCDDGWFVGVSRRTQKFGTFPGNYVAPV | NS5A | 1 | – |
| LIMS2 (protein, UniProt Q7Z4I7 1-341, looked up) LIM and senescent cell …: MTGSNMSDALANAVCQRCQARFSPAERIVNSNGELYHEHCFVCAQCFRPFPEGLFYEFEGRKYCEHDFQMLFAPCCGSCGEFIIGRVIKAMNNNWHPGCFRCELCDVELADLGFVKNAGRHLCRPCHNREKAKGLGKYICQRCHLVIDEQPLMFRSDAYHPDHFNCTHCGKELTAEARELKGELYCLPCHDKMGVPICGACRRPIEGRVVNALGKQWHVEHFVCAKCEKPFLGHRHYEKKGLAYCETHYNQLFGDVCYNCSHVIEGDVVSALNKAWCVSCFSCSTCNSKLTLKNKFVEFDMKPVCKRCYEKFPLELKKRLKKLSELTSRKAQPKATDLNSA | NS5A | 1 | – |
| IGLL1 (protein, UniProt P15814 38-213, looked up) Immunoglobulin lambda-like …: LLRPTAASQSRALGPGAPGGSSRSSLRSRWGRFLLQRGSWTGPRCWPRGFQSKHNSVTHVFGSGTQLTVLSQPKATPSVTLFPPSSEELQANKATLVCLMNDFYPGILTVTWKADGTPITQGVEMTTPSKQSNNKYAASSYLSLTPEQWRSRRSYSCQVMHEGSTVEKTVAPAECS | NS5A | 1 | – |
| PARVG (protein, UniProt Q9HBI0 1-331, looked up) Gamma-parvin: MEPEFLYDLLQLPKGVEPPAEEELSKGGKKKYLPPTSRKDPKFEELQKVLMEWINATLLPEHIVVRSLEEDMFDGLILHHLFQRLAALKLEAEDIALTATSQKHKLTVVLEAVNRSLQLEEWQAKWSVESIFNKDLLSTLHLLVALAKRFQPDLSLPTNVQVEVITIESTKSGLKSEKLVEQLTEYSTDKDEPPKDVFDELFKLAPEKVNAVKEAIVNFVNQKLDRLGLSVQNLDTQFADGVILLLLIGQLEGFFLHLKEFYLTPNSPAEMLHNVTLALELLKDEGLLSCPVSPEDIVNKDAKSTLRVLYGLFCKHTQKAHRDRTPHGAPN | NS5A | 1 | – |
